# In patent publication US20120304318A1, “CANCER DIAGNOSIS AND TREATMENT” (CAMBRIDGE ENTERPRISE LTD, priority 2009, published 2012):
# B1: OMD-myc tag: OMD with myc tag in pIRES2-EGFP vector, stably transfected into EJ28 cells (protein, UniProt Q99983 21-421, looked up)
# Osteomodulin: QYETYQWDEDYDQEPDDDYQTGFPFRQNVDYGVPFHQYTLGCVSECFCPTNFPSSMYCDNRKLKTIPNIPMHIQQLYLQFNEIEAVTANSFINATHLKEINLSHNKIKSQKIDYGVFAKLPNLLQLHLEHNNLEEFPFPLPKSLERLLLGYNEISKLQTNAMDGLVNLTMLDLCYNYLHDSLLKDKIFAKMEKLMQLNLCSNRLESMPPGLPSSLMYLSLENNSISSIPEKYFDKLPKLHTLRMSHNKLQDIPYNIFNLPNIVELSVGHNKLKQAFYIPRNLEHLYLQNNEIEKMNLTVMCPSIDPLHYHHLTYIRVDQNKLKEPISSYIFFCFPHIHTIYYGEQRSTNGQTIQLKTQVFRRFPDDDDESEDHDDPDNAHESPEQEGAEGHFDLHYYENQE
# modifications: myc tag
# notes: OMD with myc tag in pIRES2-EGFP vector, stably transfected into EJ28 cells
# B2: OMD: human osteomodulin protein (SEQ ID NO:1), stably overexpressed in cells from an expression plasmid (protein, listed as Homo sapiens)
# chain: MGFLSPIYVIFFFFGVKVHCQYETYQWDEDYDQEPDDDYQTGFPFRQNVDYGVPFHQYTLGCVSECFCPTNFPSSMYCDNRKLKTIPNIPMHIQQLYLQFNEIEAVTANSFINATHLKEINLSHNKIKSQKIDYGVFAKLPNLLQLHLEHNNLEEFPFPLPKSLERLLLGYNEISKLQTNAMDGLVNLTMLDLCYNYLHDSLLKDKIFAKMEKLMQLNLCSNRLESMPPGLPSSLMYLSLENNSISSIPEKYFDKLPKLHTLRMSHNKLQDIPYNIFNLPNIVELSVGHNKLKQAFYIPRNLEHLYLQNNEIEKMNLTVMCPSIDPLHYHHLTYIRVDQNKLKEPISSYIFFCFPHIHTIYYGEQRSTNGQTIQLKTQVFRRFPDDDDESEDHDDPDNAHESPEQEGAEGHFDLHYYENQE
# B3: PRELP: human PRELP protein (SEQ ID NO:2), stably overexpressed in cells (myc tagged in EJ28) (protein)
# chain: QPTRRPRPGTGPGRRPRPRPRPTPSFPQPDEPAEPTDLPPPLPPGPPSIFPDCPRECYCPPDFPSALYCDSRNLRKVPVIPPRIHYLYLQNNFITELPVESFQNATGLRWINLDNNRIRKIDQRVLEKLPGLVFLYMEKNQLEEVPSALPRNLEQLRLSQNHISRIPPGVFSKLENLLLLDLQHNRLSDGVFKPDTFHGLKNLMQLNLAHNILRKMPPRVPTAIHQLYLDSNKIETIPNGYFKSFPNLAFIRLNYNKLTDRGLPKNSFNISNLLVLHLSHNRISSVPAINNRLEHLYLNNNSIEKINGTQICPNDLVAFHDFSSDLENVPHLRYLRLDGNYLKPPIPLDLMMCFRLLQSVVI
# Assays:
# EJ28 cells [1] = assay: Apoptosis of stably transfected EJ28 cells with or without Mitomycin C (caspase activity); type: cell-based; conditions: for endogenous apoptosis: stable overexpression in EJ28, no drug; for apoptosis induced by Mitomycin C: stable overexpression in EJ28, 1 μg/ml Mitomycin C, caspase activity
# Description: Two control EJ28 cells, two OMD stably-transfected EJ28 cells, and a PRELP stably-transfected EJ28 cells are treated with 1 μg/ml of Mitomycin C. Also, as a positive control, EJ28 cells are treated with higher concentration 5 μg/ml of Mitomycin C as a positive control. Then, the ratios of apoptotic cells were determined by measuring caspase activities.
# (§1) OMD and PRELP were subcloned into pIRES2-EGFP (Clontech). A bladder cancer cell line, EJ28, was stably transfected with these plasmids by selection with G418. Two independent clones were derived for each plasmid (except MT-Prelp, where it was only possible to derive one). Then, the properties of these cells were examined. […] These cells include apoptotic ones. This contrasted with control cells, which were flat and cuboidal. […] Two independent clones of OMD and EGFP expressing EJ28 cells, two independent control EJ28 clones expressing EGFP, and a PRELP with myc tag and EGFP expressing EJ28 cells were treated with 1 μg/ml Mitomycin C. Also, EGFP expressing EJ28 cells were treated with higher concentration of Mitomycin C (5 μg/ml) as a positive control.
# [2] = system: EJ28 bladder cancer cells; assay: EJ28 xenograft in nude mice, tumour volume; type: in vivo, MF1 nude mice; conditions: day 18
# Description: To evaluate in vivo effect of OMD or PRELP activation in cancer cells, xenograft experiments were performed using nude mice. EJ28 bladder cancer cells expressing OMD or EJ28 control cells were injected into the mice and cancer development was monitored for three weeks. […] This observation confirms the utility of OMD/PRELP based cancer treatment.
# FIG. 15 Effect of xenograft of EJ28 cells overexpressing OMD protein. EJ28 bladder cancer cells or EJ28 cells overexpressing OMD were inoculated into nude mice and then cancer development was monitored for three weeks. The result at 18 days is shown.
# Six- to eight-week-old male MF1 nude mice were obtained from Royal Free Hospital London UK. Tumors were induced by inoculation of 5×10^6 EJ28 cancer bladder cells s.c. on the back. EJ28 tumour-bearing MF-1 mice (n=5) were injected with cells subcloned with stably transfected with OMD-myc tag in pIRES2-EGFP vector, using Lipofectamine 2000 (Invitrogen). […] Tumour dimensions were measured continuously using a caliper and tumour volumes were calculated using the equation: volume=(π/6)×a×b×c, where a, b, and c represent three orthogonal axes of the tumour. Animals were assessed for tumour growth over 25-day period.
# The biological activity of OMD on EJ28 tumour-bearing mice was determined by measuring changes in tumour volume.
# HEK 293 cells = assay: Mitomycin C induced apoptosis in normal cells (annexin and caspase activity assays); type: cell-based; conditions: stable overexpression in HEK 293; 1 ug/ml mitomycin C, 24 h
# Description: FIG. 10. OMD expression protects normal cells from apoptosis, whilst PRELP expression has no effect. HEK 293 cells stably transfected with either CAT (a control), OMD or PRELP, and assayed to measure the level of apoptosis they underwent in response to treatment with 1 ug/ml mitomycin C. (a) Annexin assay. Cells were treated one dose of the drug, and 24 hours later, they were trypsinized, incubated in the presence of Alexafluor-647 conjugated annexin and propidium iodide, and examined by flow cytometry. The annexin-positive, PI-negative subpopulation, comprising live cells that were in the process of undergoing apoptosis, was identified. (b) Caspase activity assay. One dose of the drug was administered, and 24 h later, cells were incubated in the presence of a substrate that, upon cleavage by caspases, was converted into a luminescent product. Luminescence was quantified and taken to be proportional to caspase activity. In both (a) and (b), error bars refer to standard deviations, and statistical analysis consisted of t-tests.
# EJ28 cells [3] = assay: Anchorage-independent growth in soft agar; type: cell-based; conditions: stable overexpression in EJ28; 2 weeks; relative to control cells
# Description: FIG. 14. OMD abolishes, and PRELP inhibits, anchorage-independent growth of EJ28 cells. Cells were seeded in DMEM+0.3% agar, overlying a lower layer of DMEM+0.6% agar. 3000 cells were seeded into wells of a 6-well dish in triplicate. Plates were incubated for 2 weeks, and colonies were counted. Error bars are standard deviations. Statistical analysis consisted of one-way ANOVA, with post-hoc Newman-Keuls testing. Letter groupings, “a”, “b” etc, refer to the results of the Newman-Keuls test.
# OMD and PRELP also affect the anchorage-independence, a hallmark of cancer cells. Anchorage-independence was measured by seeding cells in soft agar, incubating them for 2 weeks and counting the number of resultant colonies.
# [4] = system: EJ28 bladder cancer cell line; assay: Proliferation and cell cycle of stably transfected EJ28 cells (cell counting, BrdU incorporation, FACS); type: cell-based
# Source text: Also disclosed herein are novel methods for treatment of cancer based on activation of OMD and/or PRELP. […] If so, it can be inferred that the activation of OMD or/and PRELP would inhibit tumourigenesis and provide novel treatment of cancer. […] To this end, OMD or PRELP was stably over-expressed in the bladder cancer cell line EJ28.
# as §1
# [5] = stable overexpression in EJ28 vs control cells
Molecule,"cell death (EJ28 cells [1]; EGFP expressing EJ28 cells, 5 μg/ml Mitomycin C, positive control)","tumour size ([2]; EJ28 cells stably transfected with OMD-myc tag inoculated s.c. in MF-1 nude mice, control 37.91±16.57) [mm^3]",tumour growth ([2]; OMD-myc tag transfected EJ28 cell line vs vector control),endogenous apoptosis (EJ28 cells [1]),apoptosis induced by Mitomycin C (EJ28 cells [1]),Mitomycin-C mediated apoptosis of normal cells (HEK 293 cells),anchorage-independent growth / colony-forming ability in soft agar (EJ28 cells [3]),cell cycle arrest / inhibition ([4]; stable overexpression in EJ28),proportion of cells in S-phase (FACS analysis) ([4]; stable overexpression in EJ28),"BrdU incorporation [4, 5]","proliferation (cell-counting assay) [4, 5]"
"CO[C@@]12[C@H](COC(N)=O)C3=C(C(=O)C(C)=C(N)C3=O)N1C[C@@H]1N[C@@H]12 [Mitomycin C, reference compound]",massive cell death,–,–,–,–,–,–,–,–,–,–
B1,–,1.60±1.0,completely inhibited,–,–,–,–,–,–,–,–
B2,–,–,–,increased cell death by apoptosis,markedly sensitized,protected normal cells,absolutely abolished,enhanced cell cycle arrest at G1 phase,lower proportion of cells in S-phase,lower rate of BrdU incorporation,proliferated more slowly than control cells
B3,–,–,–,higher rates of endogenous apoptosis,even higher rates of apoptosis,had no effect,a third,cell cycle inhibition was not observed,–,–,inhibit proliferation
